PMC12872393, “NCOA4 initiates ferritinophagy by avidly binding GATE16 using two short linear interaction motifs” (Life Science Alliance, 2026)

Assays:
lysosomes (LAMP1) = assay: Immunofluorescence colocalization of GFP-NCOA4^383−522 with lysosomes (LAMP1); format: cell-based; conditions: GFP-fused constructs in NCOA4Δ HeLa cells, 50 μM DFO 24 h; anti-GFP and anti-LAMP1; area of overlap per nucleus and Manders' coefficient
Description: For colocalization assays, NCOA4^383−522 cell lines were seeded on glass coverslips in a 12-well cell culture plate in DMEM as above. After 24 h, media were aspirated and replaced with DMEM supplemented with 50 μM DFO, and cells were incubated for an additional 24 h. Cells were then fixed with 4% paraformaldehyde in PBS (150 mM NaCl, 2.7 mM KCl, 10 mM Na2HPO4, 1.8 mM KH2PO4, pH 8.0) for 15 min at RT, quenched with 100 mM glycine in PBS for 10 min, and washed three times with PBS. Cells were next permeabilized with 0.5% Triton X-100 in PBS for 10 min, washed once with PBS, and blocked for 30 min in 2% BSA in PBS. Slides were next incubated in anti-GFP mouse antibody (sc-9996; Santa Cruz) diluted 1:200, anti-LAMP1 rabbit antibody (9091T; Cell Signaling) diluted 1:200, and Hoechst stain (H3570; Invitrogen) diluted 1:1,000, in 2% BSA in PBS for 1 h. […]
All image analysis was conducted in FIJI ([Schindelin et al, 2012]). […] The overlapping regions were then measured, and the area per nucleus was recorded. […] For all images, threshold values were manually chosen for the pink and green channels, and Manders’ value, which calculates the fraction of the pink signal that overlaps green signal, was recorded.

[1] = test system: ferritin heavy chain (FTH1); assay: Western blot assay of ferritin degradation (ferritinophagy) in HeLa cell lines; format: cell-based; conditions: EGFP-fused constructs stably integrated in NCOA4Δ HeLa cells; 40 μM FAC 24 h then 50 μM DFO 24 h; quantitative Western blot FTH1/tubulin, triplicate
Excerpt: Stably integrated NCOA4^383−522 cell lines were generated via retroviral transfection of the relevant NCOA4^383−522 construct in a CMV-enhancer–bearing pMRX plasmid (84573; Addgene) into NCOA4Δ HeLa cells (a gift from Prof. M. Poli, University of Brescia, Italy) ([Gryzik et al, 2021]). In this pMRX plasmid, EGFP was fused to the N terminus of NCOA4^383−522 and its mutants with a 13-residue GS linker. HeLa cells were transfected and selected as described previously ([Sena-Esteves & Gao, 2018]).
After 24-h, all media were aspirated and replaced with either DMEM or DMEM supplemented with 40 μM ferric ammonium citrate (FAC). After an additional 24 h, all media were aspirated and replaced with either DMEM or DMEM supplemented with 50 μM deferoxamine (DFO). After an additional 24-h incubation, cells were trypsinized (200 μl, 5 min, 37°C), pelleted via centrifugation at 100g for 1 min, resuspended in Dulbecco’s PBS (D8537; Sigma-Aldrich), and pelleted as above before undergoing flash freezing in liquid nitrogen and storage at −80°C.
Frozen cell pellets were resuspended in 100 μl 4X Laemmli buffer with Halt protease and phosphatase inhibitor (78440; Thermo Fisher Scientific) and lysed with a 29-gauge syringe. […] Ferritin levels were then measured by densitometry in FIJI ([Schindelin et al, 2012]) and normalized to tubulin intensity measured as above.

B1: NCOA4^383-522: NCOA4 fragment of residues 383–522; biotinylated AviTag-His6-NCOA4-MBP in vitro, EGFP fusion in cells (protein)
chain: SMVTEDWLVQNHQDPCKVEEVCRANEPCTSFAECVCDENCEKEALYKWLLKKEGKDKNGMPVEPKPEPEKHKDSLNMWLCPRKEVIEQTKAPKAMTPSRIADSFQVIKNSPLSEWLIRPPYKEGSPKEVPGTEDRAGKQK
modifications: biotin on the AviTag (BirA co-expressed); left off: AviTag, N-terminal, kept | His6, N-terminal, kept | MBP, C-terminal, kept
notes: NCOA4 fragment of residues 383–522; biotinylated AviTag-His6-NCOA4-MBP in vitro, EGFP fusion in cells
For B1, the “NCOA4:lysosome colocalization (in words)” value (lysosomes (LAMP1)) was “significant colocalization” and the “ferritin degradation upon iron chelation with DFO (in words)” value [1] was “ferritin degradation was robust”.
